From doi:10.1101/2022.05.23.493104 (bioRxiv, 2022)

T1: CAV1-His (wild type caveolin-1, E. coli expression) (human, UniProt Q03135 1-178)
T1 sequence: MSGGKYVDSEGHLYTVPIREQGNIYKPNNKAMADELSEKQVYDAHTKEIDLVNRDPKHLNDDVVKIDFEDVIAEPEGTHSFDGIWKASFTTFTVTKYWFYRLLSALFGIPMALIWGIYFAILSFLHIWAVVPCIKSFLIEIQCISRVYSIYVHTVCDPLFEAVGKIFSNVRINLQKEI


Tests used:
[1] = biological target: T1, CAV1-His (wild type caveolin-1, E. coli …); assay: negative stain electron microscopy
[2] = biological target: the molecule itself; assay: negative stain electron microscopy

binding result [1]	Binder	binding result [2]
binds	P132L-mVenusHis (caveolin-1 P132L with C-terminal mVenus, E. coli expression) (natural protein, human) MSGGKYVDSEGHLYTVPIREQGNIYKPNNKAMADELSEKQVYDAHTKEIDLVNRDPKHLNDDVVKIDFEDVIAEPEGTHSFDGIWKASFTTFTVTKYWFYRLLSALFGIPMALIWGIYFAILSFLHIWAVVLCIKSFLIEIQCISRVYSIYVHTVCDPLFEAVGKIFSNVRINLQKEI	binds
–	P132L-His (caveolin-1 P132L, E. coli expression) (natural protein, human) MSGGKYVDSEGHLYTVPIREQGNIYKPNNKAMADELSEKQVYDAHTKEIDLVNRDPKHLNDDVVKIDFEDVIAEPEGTHSFDGIWKASFTTFTVTKYWFYRLLSALFGIPMALIWGIYFAILSFLHIWAVVLCIKSFLIEIQCISRVYSIYVHTVCDPLFEAVGKIFSNVRINLQKEI	binds
